B3: P4.33 protein (IGFBP-3 receptor, IGFBP-3R), untagged / endogenous (receptor)
chain: SFLLTHRTGLRSPDIPQDWVSFLRSFGQLTLCPRNGTVTGKWRGSHVVGLLTTLNFGDGPDRNKTRTFQATVLGSQMGLKGSSAGQLVLITARVTTERTAGTCLYFSAVPGILPSSQPPISCSEEGAGNATLSPRMGEECVSVWSHEGLVLTKLLTSEELALCGSRLLVLGSFLLLFCGLLCCVTAMCFHPRRESHWSRTRL

Assay [1] deals with B3. The assay is described as follows: cell-surface competition assay; competitor of full-length IGFBP-3.
Assay [2] addresses T1, Insulin-like Growth Factor Binding Protein-3 (IGFBP-3) (UniProt P17936 28-291, limits assumed, 125I label or OregonGreen label in some assays (sites not given)).
T1 construct: mature; Also used for IGFBP-3 expressed by the cells themselves (Hs578T, PC-3, MCF-7:BP-3 lines) in the functional rows; also called unlabelled IGFBP-3
The assay is described as follows: cell-surface binding with unlabelled IGFBP-3 as competitor, Hs578T cells transfected with un-tagged clone 4.33. As to the method: Cell surface binding assay. Cells were seeded into 24-well plates and grown to 60-70% confluency, then transfected according to manufacturer instructions in serum-containing medium for 36 hours. Sf9 cells were seeded into 24-well plates and infected with virus harboring the 4-33^F cDNA for 48 hours. Cells were washed in cold PBS, then incubated for 3 hours at 12° C. in binding buffer (1× Hank's buffered salt solution, 1 mM CaCl₂, 1 mM MgCl₂, 0.5% BSA) containing [¹²⁵I]-IGFBP-3 (Diagnostic Systems Laboratories) at 50,000 cpm per well in triplicate, with or without unlabelled IGFBP-3 as indicated in the text below. The binding solution was then aspirated and the cells washed in cold binding buffer (without BSA), lysed in 0.25 N NaOH, and the radiolabelled IGFBP-3 present in each lysate was detected in a gamma counter.
Cells were then washed and exposed to [¹²⁵I]-labelled IGFBP-3 plus and minus increasing amounts of unlabelled IGFBP-3 as indicated for 3 hours at 12° C.

B1: IGFBP-3 fragment comprising amino acids 98-264 (other, UniProt P17936 125-291, looked up)
chain: AYLLPAPPAPGNASESEEDRSAGSVESPSVSSTHRVSDPKFHPLHSKIIIIKKGHAKDSQRYKVDYESQSTDTQNFSSESKRETEYGPCRREMEDTLNHLKFLNVLSPRGVHIPNCDKKGFYKKKQCRPSKGRKRGFCWCVDKYGQPLPGYTTKGKEDVHCYSMQSK
notes: range 98-264; also called IGFBP-3 fragment 98-264
With B1, the binding result in assay [1] was “binds”.

B2: IGFBP-3 fragment comprising amino acids 88-148 (peptide, UniProt P17936 115-175, looked up)
chain: VNASAVSRLRAYLLPAPPAPGNASESEEDRSAGSVESPSVSSTHRVSDPKFHPLHSKIIII
notes: range 88-148; also called IGFBP-3 fragment 88-148
With B2, the binding result in assay [1] was “binds”.
Consider B3, for which the binding result in assay [2] is recorded as “binds”.

The record behind these values is patent US20040072285A1 (OREGON HEALTH AND SCIENCE UNIVERSITY, published 2004).
